Data from the nanobody polyreactivity screen of Harvey et al. (2022).

Experiment: yeast display, Sf9 membrane polyspecificity reagent, FACS + sequencing; frameworks hold sequencing errors
Procedure, shortened: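 Genes from sorted yeast were amplified by colony PCR, read by MiSeq 2 × 250 sequencing and filtered on CDR length. These cells carried a synthetic nanobody library in Saccharomyces cerevisiae BJ5465 and were sorted by FACS into low and high (top ~1%) gates on anti-HA and streptavidin fluorescence. Polyreactivity is labelled according to the gate of origin.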

Q: For “QVQLVESGGGLVQAGGSLRLSCAASGFIFGYKARGWYRQAPGKERELVAAISSSGGSTYYADSVKGRFTISRDNAKNTVYLQMKSLKPEDTAVYYCAARPVALRKYYYWGQVTQVTVSS”, which “polyreactivity (PSR sort gate)” value is on record?
A: low polyreactivity

Q: For “QVQLEESGRGLVQAGGSLRLSCAASGSIFIVYAIGWYRQAPGKERELVAAINDGGSTSYADSVKGRFTISRDNAKNTVYLQMNSLKPEDTAVYFCAAETYLGNDYWEDYYWGQGTQVTVSS”, which “polyreactivity (PSR sort gate)” value is on record?
A: low polyreactivity

Q: For “QVQLVESGGGLVQAGGRLRLSFAASGFTFRYYAMGWYRQAPGKEREFVAAIRSSGTTTSYADSVKGRFTISRDNAKNTVYLHMKSLKPEDTAVYYCAKVSSSSYVEHRYGYWGQGTQVTVSS”, which “polyreactivity (PSR sort gate)” value is on record?
A: high polyreactivity

Q: With “QVQLVESGGGLVQAGGSLRLSCAASGSIFFLYGMGWYRQAPGKERELVAAIRKRGSSTYYADSVKGRFTISRDNAKNTVYLQMNSLKPEDTAVYYCAAAALGYYGYRGFDYWGQGTQVTVSS” as the sequence, how does the “polyreactivity (PSR sort gate)” value read?
A: low polyreactivity

Q: With “QVQLVESGGGLVQAGGSLRLSCAASGRIFSRYAMGWYRQAPGKERELVAAISWSGGSTYYADSVKGRFTISRDNAKNNVYLQMNSLKPEDTAVYYCAARRSYSYGSWGQGTQVTVSS” as the sequence, how does the “polyreactivity (PSR sort gate)” value read?
A: high polyreactivity

Q: With “QVQLVESGGGLVQAGGSLRLSCAASGGIFGSYAMGWYRQAPGKERELVAAITSGGRTTYADSVKGRFTISRDNAKNTVYLQMNSLKPEDTAVYYCNAGRVFGNYFFRVYYYWGQGTQVTVSS” as the sequence, how does the “polyreactivity (PSR sort gate)” value read?
A: high polyreactivity

Q: For “QVQLVASGGGLVQAGGSLRLSCAASGRIFYAYAMGWYRQAPGKERELVAAITISASSTYYADSVKGRFTFSRDNAKNTVYLQMNSLKPEETAVFYCAAAYRRPWWYSYRYGYWGQGTQVTVSS”, which “polyreactivity (PSR sort gate)” value is on record?
A: high polyreactivity

Q: Which “polyreactivity (PSR sort gate)” value does the source give for “QVQLVESGGGLDQAGGSLRLSCAASGFTFTAYDMGWYRQAPGKVRELVAAINWSGSRTYYADSVKGRFTISRDNAKNTVYLQMNSLKPEDTAVYYCNTATSKSSYLHYDYWGQGTQVTVSS” here?
A: high polyreactivity

Q: For “QVQLVESGGGLVQAGGSLRLSCAASGRTFYYYDMGWYRQAPGKERELVAAISASGGSTYYADSVKGRFTISRDNAKNTVYLPMNSLKPDDTAVYYCAATLYHYWYSDFDYWGQGTQVTVSS”, which “polyreactivity (PSR sort gate)” value is on record?
A: high polyreactivity

Q: With “QVHLVESGGPLVQAGGSLRLSCAASGRIFQINAMVWYRQAPGKERELVAGITGSGGSTDYADSVKGRFTISRDKSKNTVYLQMNSLKPEDTAVYYCAADTYTDGYDYWGQGTQVTVSS” as the sequence, how does the “polyreactivity (PSR sort gate)” value read?
A: low polyreactivity

Q: For “QVQLVESGGGLVQAGGSLRLSCAASGLIFTWYAMGWYRQAPGKERELVADISWSDDSTNYADSVKGRFTISRDNAKNTVYLQMNSLKPEDTAVYYCATQLDYGGRVGDADDYWGQGTQVTVSS”, which “polyreactivity (PSR sort gate)” value is on record?
A: low polyreactivity

Q: With “QVQLVESGGGLVQAGGSLRLSCAASGSIFYINAMGWYRQAPGKEREFVARISWRSGSTSYADSVKGRFTISRDNAKNTVYLQMNSLKPEDTAVYYCNAGDFANDNGGRRDQFTWEDEYWGQGTQVTVSS” as the sequence, how does the “polyreactivity (PSR sort gate)” value read?
A: low polyreactivity

Q: For “QVQLVETGGGLVQAGGSLRLSCAASGSIFVYYAMGWYRQAPGKERELVAAISSRGGRTYYADSVKGRFTISRDNAKHTVYLQMNSLIPEDTAVYYCAASPDYSRYWVYAPNRRLGYWGQGTQVTVSS”, which “polyreactivity (PSR sort gate)” value is on record?
A: high polyreactivity

Q: For “QVQLVESGGGLVQAGGSLRLSCAASGSTFYLYAMGWYRQAPGKERELVAAISSGGRTYYADSVKGRFTISRDNAKNTVYLQMNRLKPEDTAVYYCAKVYRRRYYWGQGTQVNVSS”, which “polyreactivity (PSR sort gate)” value is on record?
A: high polyreactivity

Q: For “QVQLVESGGGLVQAGGSLRLSCAASGITFYGYAMGWYRQAPGKEREFVATISKSGGITSYADSVKGRFTISRDNAKNTVYLQMNSLKPEDTAVYYCNRGKRYGGYDYWGQGSQVTVSS”, which “polyreactivity (PSR sort gate)” value is on record?
A: low polyreactivity

Q: For “QVQLGESGGGLVQAGGSLRLRCAASGSNFRTYVMGWYRQGPGKERELVAAISRRGGSTYYADSVKGRFTISRDNAKNTVYLPMNSLKPEDTAVYNCAAEDEYSLEYSTLDYWGQGTQVTVSS”, which “polyreactivity (PSR sort gate)” value is on record?
A: high polyreactivity

Q: Which “polyreactivity (PSR sort gate)” value does the source give for “KVQLVESGGGLVQAGGSLRLSCAASGSIFGDNAMGWYRQAPGKERELVAAINYNGGRTYYADSVKGRFTISRDNAKNTVYLQMNSLKPEDTAVYYCAKDNYQAPVQQYPFDYWGQGSQVTVSS” here?
A: low polyreactivity

Q: Which “polyreactivity (PSR sort gate)” value does the source give for “QVQLEESGGGLVQAGGSLRLSCAASGRIFYRNAMGWYRQAPGKERELVAAISSSAGSTYYADSVKGRFTISRDHAKNTVYLQMNSLKPEDTAVYYCAAGSGTFVTRYRYDYWGQGTQVTVSS” here?
A: high polyreactivity

Q: For “QVQLVESGGGLVQAGGSLRLSCAASGGIFYGYAMGWYRQAPGKERELVAAITTGGSTNYADSVKGRFTISRDNAKNTVYLQMNSLKPEDTAVYYCAAPVNRAQGPYARRVERYGYWGQGTQVTVSS”, which “polyreactivity (PSR sort gate)” value is on record?
A: low polyreactivity

Q: For “QVQLVESGGGLVQAGGSLRLSCAASGNIFQRYAMGWYRQAPGKERDLVAAISYSGARTYYADSVKGRFTISRDNAKNTDYLQMNSLKPEDTAVYYCATYGGLTKFRLAYDYWGQGTQVTVSS”, which “polyreactivity (PSR sort gate)” value is on record?
A: high polyreactivity

Q: With “QVQLVESGGGLVQAGGSLRLSCAASGLIVWYYAMGWYRQAPGKERELVATITSRGGSTYYADSVKGRFTISRDNAKNTVYLQMNSLKPEDTAVYYCARENPGDSYYDYWGQATQVTVSS” as the sequence, how does the “polyreactivity (PSR sort gate)” value read?
A: low polyreactivity

Q: For “QVQLVESGGGIVQAGGSLRLSCAASGRISAYNAMGWYRQAPGKERELVAAITYDGGSTYYADSVKGRFTISRDNAKNTVYLHMNSLKPEDTAVYYCNAGADSVSFRDGGITTYDYWGQGTQVTVSS”, which “polyreactivity (PSR sort gate)” value is on record?
A: low polyreactivity

Q: Which “polyreactivity (PSR sort gate)” value does the source give for “QVQLVESGGGLVQAGGSLRLSCAASGSIFGQYAMGCYRQAPGKERELVATISSSGGSTYYADSVKGRFTISRDNAKNTVYLQMNSLKPEDTAVYYCAADWTLDPSYGYYADDYWGQGTQVTVSS” here?
A: low polyreactivity

Q: With “QVQLVESGGGLVQAGGSLRLSCAASGFIFDPYAMGWYRQAPGKERELVAAISDGGSTNYADSVKGRFTISRDNAKNTVYLQMNSLKPEDTAVYYCAVEYWYVWVTFDYWGQGTQVTVSS” as the sequence, how does the “polyreactivity (PSR sort gate)” value read?
A: low polyreactivity

Q: For “QVQLVESGGGLVQAGGSLRLSCAASGSIFDFSAMGWYRQAPGKERELVAAISGSGGSTYYADSVKGRFTISRDNAKNTVYLQMNSLKPEDTAVYYCSYYYWGQGTQVTVSS”, which “polyreactivity (PSR sort gate)” value is on record?
A: low polyreactivity

Q: With “QVQLVESGGGLVQAGGSLRLSCAASGSIFESYAMGWYRQAPGKERELVAAITKRGGSTYYADSVKGRFTISRDNAKYTVYLQMNSLKPEDTAVYYCNARWPGIGPIYDYWGQGSQVTVSS” as the sequence, how does the “polyreactivity (PSR sort gate)” value read?
A: low polyreactivity

Q: Which “polyreactivity (PSR sort gate)” value does the source give for “QVQLVESGGGLVQAGGSLRLSCAASGSTFYYYAMGWYRPAPGKEREMVAAINSGGRTNYADSVKGRFTISRDNAKNSVYLQMNSLKPEDTAVYYCAKRTYPYGTYRSVWGYDYWGQGTQVTVSS” here?
A: low polyreactivity

Q: With “QVQLVESGGGLVQAGGSLRLSCAASRRILRVYAMGWYRQAPGKERELVASISSGGSTNYADSVKGRFTISRDNAKNTVYFQMKSLKPEDTAVYYCNRRWVHTYDYWGQGTQVTVSS” as the sequence, how does the “polyreactivity (PSR sort gate)” value read?
A: high polyreactivity

Q: For “QVQLVESGGGLVQAGGSLRLSCAAAGRIFSYNAMGWYRQAPGKERELVAAISSGGSTYYADSVKGRFTISRDNAKNTFYLQMNSLKPEDTAVYYCAADRRYYSDMYYWGQGTQVTVSS”, which “polyreactivity (PSR sort gate)” value is on record?
A: low polyreactivity

Q: For “QVQLVESGGGLVQAGGSLRLSCAASGSIFLVNAMGWYRQAPGKERELVAAITYGGDSTYYADSVKGRFTISRDNAKNTVYLQMNSLKPEDTAVYYCAADAWVGWHDEYDYWGQGTQVTVSS”, which “polyreactivity (PSR sort gate)” value is on record?
A: low polyreactivity

Q: For “QVQLVESGGGLVQAGGSLRLSCAASGFIFKSYAMGWYRPAPGKERELVAAISSGGTTNYADSVKGRFTISRDNANNTVYLQMNSLKPEDTAVYYCAAALHGHTFPFYYWGHGTQVTVSS”, which “polyreactivity (PSR sort gate)” value is on record?
A: low polyreactivity

Q: With “QVQLVESGGGLVQAGGSLRLSCAASGFTFRRNAMGWYRQAPGKERELVAAISSSGGSTSYADSVKGRFTISRDNAKNTVYLQMNSLKPEDTAVYYCAVEVASYDRRPSEYYWGQGTQVTVSS” as the sequence, how does the “polyreactivity (PSR sort gate)” value read?
A: high polyreactivity

Q: For “QVQLVESGGGLVQAGGSLRLSCAASGRTFRKYAMGWYRQAPGKERELVAALSWYGGSTYYANSVKGRFTISRDNAKNTVYLQMNSLKPEDTAVYYCAAVPVHTGSLYWGFTTCYDYWGQGTQVTVSS”, which “polyreactivity (PSR sort gate)” value is on record?
A: low polyreactivity

Q: For “QVQLVESGVGLVQAGGSLRLSCAASGGNFWSYPMGLYRQAPGKEREYVAAITTSAGRTNYADSVKGRFTISRDNAKNSVYLQMNSLKPEDTAVYYCAARSAYPGLGYGFDYWGQGTQVTVSS”, which “polyreactivity (PSR sort gate)” value is on record?
A: low polyreactivity

Q: For “QVLLVESGGGLVQAGGSIRLSCDASGLTFYQNSMGWYRQAPGKERELVAAISSTRITNYADSVKVRFTLSRDNAKTPVYLQMNSLIPEDTAVYYCNADYHPFFFEFIYWGQGTQGTVSS”, which “polyreactivity (PSR sort gate)” value is on record?
A: high polyreactivity

Q: For “QVQLVESGGGLVQAGGSLRLSCAASGRIFPKYAMGWYRQAPGKERELVARISVRGGRTYYADSVKGRFTISRDNAKNTVYLQMNSLKPEDTAVYYCAAYTRPAYDYWGQGTQVTVSS”, which “polyreactivity (PSR sort gate)” value is on record?
A: high polyreactivity

Q: For “QVQLVESGGGLVQAGGSLRLSCAASGSNFGYYTLGWYRQAPGKERELVAAIRYGDGSTNYADSVKGRFTISRDNAKNTVYLKMNSLKPEDTAVYYCATRSQRGYRGYNYWGQGTQVTLSS”, which “polyreactivity (PSR sort gate)” value is on record?
A: high polyreactivity

Q: For “QVQLVESGGGLVQAGGSLRLSCAASGFTFYSYAMGWYRQAPGKERELVATITSAGSTNYADSVKGRFTISRDNAKNTVYLQMNSLKPEDTAVYYCAAVYYYIYYWGQVTQVTVSS”, which “polyreactivity (PSR sort gate)” value is on record?
A: high polyreactivity

Q: Which “polyreactivity (PSR sort gate)” value does the source give for “QVQLQECGGGLVQAGGSLRLSCAARGNIFDADIMGWYRQAPGKESELLASVTDGGSTNYADSVKGRFTISRDNAKNTVYLQMNSLKPEDSAVYYCAAIVYPDILTYFDYDYDYFYWGQGTQVTVGS” here?
A: low polyreactivity

Q: For “QVQLVESGGGLVQAGGSLRLSCAASGIIFRSYAMGWYRQAPGKERELVAAITGGGTTNYADSVKGRFTISRDNAKNTVYLQMNSLKPEDTAVYYCNAGLDWFWFNEMDYWGQGTQVTGSS”, which “polyreactivity (PSR sort gate)” value is on record?
A: low polyreactivity

Q: With “QVQLVESGGGLVQAGGSLRLSCAASGSTFARNAMGWYRQAPGKERDLVAAITWSGGNTYYADSVKGRFTISRDNAKNTVYLQMNSLKPEDSAVYYCNKATRHHFYYWGQGTQVTVSS” as the sequence, how does the “polyreactivity (PSR sort gate)” value read?
A: high polyreactivity
